Test results taken from the supplement of paper PMC12636428.

Tested on: Saccharomyces cerevisiae
Experiment: transcriptional activation domain activity (GFP:mCherry ratio, weighted mean of sorted bins, harmonized to initial dataset scale) (arbitrary fluorescence ratio units); higher = stronger transcriptional activation
Conditions: beta-estradiol 1 µM; induction time 4 h
Summary of the method: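 Barcoded protein tiles fused to an estradiol-inducible synthetic transcription factor were integrated at the yeast URA3 locus, in diploids carrying a GFP reporter. Cultures were diluted 1:5 into SC with 1 uM beta-estradiol, held 4 hours at 30 °C, sorted into 8 bins by GFP:mCherry ratio, and barcodes sequenced. Tiles under 50 reads were discarded. Activation activity is the read-weighted mean of bin median fluorescence, averaged across barcodes, then linearly mapped onto the initial dataset scale.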

Row | Sequence | transcriptional activation domain activity
1 | HAQGEGEYKAAQAEGYAEGTQDRFGGKKDAVIGALTGDRKQEASGTLIPRLKL | 34400
2 | EGEVTTTSSEEETTTEEETTRTRPTRTTTTEEEQTTTDASSTTTSQDEETTTP | 39200
3 | LADYMCDYSGSLIGKHFKTLAQIMPFAIQDLVPSSVQAAWLLIGRLVVLLWVT | 52900
4 | VIEGNTSPAVGIEMCHVMLCSLVKELYQRVAASGMTFVLSVSVECLLSQTLQT | 31800
5 | CPVHTTLHVPHFLIWSSHILFFFLVFFFVFSLFPFPLVCLVAFFLVLSALPPS | 42700
6 | VFIAVLSCVGTCGASYLCISFMPLVCHNSPYYTPLSSLIWSCRAGLRCLYLWI | 55300
7 | LLLFLFLRICFGLHVLATSAWFFYPSFLYGLSLITLPLFYGGVDPSVPWLFDG | 48900
8 | SSPVVVSKIEDKNTEDKGADVKKTEESKKEEKTEVKQESKPEEKAEAKSEEKK | 29300
9 | QLAIELSAFADDSFIFPDEDKPSNNNNNSNNGNDDHSNHDVLHEDPSTNNRQR | 16300
10 | VLYSSLITIFTAFYWNVASTSSVQILALLLPYTHPNIAHASTIRPFLIYALFT | 66700
11 | SIHEPVDFLEPQPFLDFFVVFCFRLLFLWLLIFIFLFRLFIVFSLLFLFLHHI | 28600
12 | WKKTIQNKIKDSLTLSSKEKELLHLIEHGAEQTTENSNLFYDIFEEIIDSLPS | 112000
13 | KIHLVNLAQVTVFFIHRLLYGIIPLFEIATCAYYPFLVSLWHINYLLFYIVMF | 42000
14 | VCEEAVGCVRRAALEGFVDEDVRAANVLVRRAGERKERAGRAGRSRVVLVDLA | 32600
15 | SGGGRRRDGGGRRAGGRRDGAGGGRGRGDRGGGGGGGGERGERGGRPKKTQEE | 50900
16 | QSGFNIHLKDAGAGAHMELLTLDQILMFFQGLNNLNLLYFWGVGFDRLAILAF | 59200
17 | WSFLSFSFLPFPLSSFLLLSYPPPSFFLLPPSPFFFAVLLHLFTLLLFSLLLL | 63900
18 | RKPEAAAEKTAEAPEATGGEGTRRRASGRGRGRGRNGRGGRSGRAEGEEKKDE | 31500
19 | LIAGWCCLLSASCGIFYCIFRAIAIYVPEFNCRVVLWCFAILKVISILCHAAV | 32700
20 | ALLKLLVMMLWEIEFYEPCFGALRLMDYITSEICPDSNLSAEATLLRIRTLIR | 58200
21 | LSHFLAGLHHSVLLAYFLYFFVLPFSLLCYSIFLLYFSFGLDGIILLFYYFIF | 37100

Row | Sequence | transcriptional activation domain activity
22 | ISIAQIEIAILFHISFFIFYFVSISFLLLYFICCILCTYVLLIYSLSFLYLVV | 45800
23 | TRDDEEGGEEEEEEEEEEEEDEEDEDPESLPHIHKALEIHYQIHLSPTYSVPV | 52700
24 | LLLLPVSFLVLSGIYSPFILILFDSPWPVLYVLIYFPLCYFVLSPYIIFALSP | 51200
25 | LYLSLLKRKTTIWFFVYVVLQNYFLSTLYGRNWFFLFSSQHAPTWSIWLLAFI | 57300
26 | VLQILAFAMFIICTLTLQLRLRSNPPVQCVAGVVTHYRRYFIALYCTSGLFLI | 56600
27 | AFHKLQLERGWTGAKMVMHLLKVYFSWQYGHHCTVYRPIFMRDMALGGPYFSQ | 55200
28 | AQRHLLKCIVFRTEKSLINFVPELTEAKARDIRMLHFYPPALQRAALILLVKT | 47500
29 | YRLLLSLVVRLYFFLRFSLSHTLRTVVIVLAPLTYFLSGITYIFFTAPYRVLF | 61800
30 | MLHLAALSPLMLLVFLLFSLFFKFFATFIWLYIMAYILITTLIIVFRITLPAN | 68500
31 | PRKFICLTNQLTARLGCELDKDHDLFKRTLYAVVQYVLVNHPHHILYNLIALS | 46000
32 | MLLIWLYALKTGFVLSAVVSFGFWYSISLFFMYFIGKPLFHDSFFLFFSSFFL | 57200
33 | FLVCLLTMEFILHYMYVVAIQGAKAWHGDTPLELSMIGFWNLIVVWLKLLLPW | 18200
34 | TFLGFFDFTCSSPSYVIHHLDITNLFVSPFLFFPSFPSIFIFCWNILILGLFE | 57300
35 | AMLMSLFVSVFCVYGVFIHVAASALQYQIVFFSPCIYMMLICGLSFLCCESPR | 75700
36 | IIPKIYFYGGYKGLLLFISSLSLTLLCYILITRPILSFLIVSDIVLNVIINIY | 63400
37 | IARADRTSPNDGGVALKKHVVVFASRPGLGLLIAAYLHKNLRSDWNIQLILGC | 66700
38 | MGEEDAKVGAGPALQVIVLGSGGGPQENNVTALLVRSVNSNWARGSMLALDAG | 36500
39 | EEEPATKKQKTDDAAATTNGDAKPKGKPGRPKKAESEKKSPAKKRDPKKAATA | 33700
40 | DFKHPMEPLACNWEDCDFLGDDTCSIVNHINCQHGINFDIQFANPDSFLPGSI | 141000
41 | ETPAAEPVKETETAAEAAPAEAAAEATPEEAKEEKKEEKKEEKVKGSKVGRRL | 32500
42 | GDEKKRNRERSREGGHRERSRSPDRERRSRRKRSHSRDRSSTRRRHKRHRSRS | 30400

Row | Sequence | transcriptional activation domain activity
43 | QKKLLILCGFGWLADNVSIYHLLSISCWFYYKGTQLYSLFLIRCGYRLWLLFF | 70700
44 | MLFFFCPIYLKLLIFFLCIVRSICQIFVFAYYLHRIYGVVCFSLLFFSKIQLR | 58200
45 | YQLASDRSADCGLLRLVLDAQTFGATAAVIVLDWARPWRFIKSLLRWMHVLST | 42000
46 | GDLGFRDSIVTKVLQDARSNFLVSVSRLLRPIFVLMKKWVRLAVERLNICHSR | 33300
47 | CMELMLHYIYVVAISNSSPDWSAYTPFQLSMLGYFNLHHIWLKLLIPWRFFRL | 80500
48 | GAKGKGAEKGKSKQAEQGDGEDGGSEAEGGKRKRAARSKAKTKGKAGGAADGG | 23300
49 | MYYIIISYDYFLIILIPIIDTCYPFKDFCIIFFIYPLLLHYAIFYYLRLVFIY | 45100
50 | GEEARDRGHRSGSGRHRSRDRERRRRRDRDDDRHTSSRHSRRERSPEEDSSRR | 36700
51 | SATARTTTTTRTATSTTTTAKPSTTTRPSTTTTTTAARRPGTTTTTPARTSVT | 38700
52 | LVHNTLCMLDLIPLLSVRLLLMSLSICFGWYTIFVFAAGVIETVHLTIGRTFT | 33900
53 | YVVLEVGLNVQLDRMAQSDARMVVHALSGGPFIDVVRWVPLRMSSGAFQIGLR | 68300
54 | EVGADGGAAADEEEEEESDEEGEDGGRKRKKPKVAAEKPERKASAAPADGEKK | < 6570
55 | HVERGRDVTKGFVKCHTHMRTTCVGSIRFSHAASFAPSVCLGVGVKSLDRRPL | 37300
56 | HSVHAGLIFPLFHRHCFYMLESSLRTKSDRLVFNSLSSHAGVIAWLRTQGVLQ | 65500
57 | VVTLHEILKCLGHLRSLVLTAKAFGCLQAIRMILEHFLLVWRKTITHCLRYSE | 60400
58 | MSDTKSARSGDKERDKRRREKESDSSSKDGRRGSHSHSKTPEEPKEKGHKRKH | 13000
59 | MLAGAFLPLLFGFFFFSFPTSHTPPFHLLPPGFQFLPVSTSFSYFFCFCFFFP | 39100
60 | SLSRKKRGRGRPKGSKNKKSGDGAASSAAPSGDATGKRKRGRPPKEKPAEATA | 44300
61 | DNLDLASLDPLEQSPSISMEPVSINETGSAYTTTNTALNDIDIPFSINELNEL | 64900
